Source: paper PMC11619453

Target: ORF59HA full-length (KSHV DNA polymerase processivity factor ORF59 with an in-frame HA tag, from iSLK.BAC16-ORF59HA) (Kaposi's sarcoma-associated herpesvirus (KSHV, human herpesvirus 8), BAC16)
Sequence (F5HID2 whole entry): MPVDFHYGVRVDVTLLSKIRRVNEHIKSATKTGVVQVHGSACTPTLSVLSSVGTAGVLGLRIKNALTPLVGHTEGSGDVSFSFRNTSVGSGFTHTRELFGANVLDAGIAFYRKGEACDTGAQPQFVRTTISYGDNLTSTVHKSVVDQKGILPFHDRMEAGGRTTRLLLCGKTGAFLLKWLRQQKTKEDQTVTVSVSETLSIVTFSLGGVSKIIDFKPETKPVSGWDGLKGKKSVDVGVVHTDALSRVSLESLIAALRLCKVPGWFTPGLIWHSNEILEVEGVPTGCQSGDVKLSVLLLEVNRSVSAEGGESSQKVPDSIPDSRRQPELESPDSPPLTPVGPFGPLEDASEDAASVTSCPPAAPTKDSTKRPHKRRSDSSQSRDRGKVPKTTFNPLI

B1: ORF57 (KSHV mRNA transcript accumulation protein, MTA) (natural protein)
chain: MVQAMIDMDIMKGILEDSVSSSEFDESRDDETDAPTLEDEQLSEPAEPPADERIRGTQSAQGIPPPLGRIPKKSQGRSQLRSEIQFCSPLSRPRSPSPVNRYGKKIKFGTAGQNTRPPPEKRPRRRPRDRLQYGRTTRGGQCRAAPKRATRRPQVNCQRQDDDVRQGVSDAVKKLRLPASMIIDGESPRFDDSIIPRHHGACFNVFIPAPPSHVPEVFTDRDITALIRAGGKDDELINKKISAKKIDHLHRQMLSFVTSRHNQAYWVSCRRETAAAGGLQTLGAFVEEQMTWAQTVVRHGGWFDEKDIDIILDTAIFVCNAFVTRFRLLHLSCVFDKQSELALIKQVAYLVAMGNRLVEACNLLGEVKLNFRGGLLLAFVLTIPGMQSRRSISARGQELFRTLLEYYRPGDVMGLLNVIVMEHHSLCRNSECAAATRAAMGSAKFNKGLFFYPLS
viral DNA accumulation (qPCR of ORF26, 72 hpi) in 59HA-WT iSLK cells transfected with 30–100DsRed, against control cells: 5 fold
